Key:
[1] = target: T1, DhSgl1 (Debaryomyces hansenii, UniProt Q6BN62); assay: initial extracellular alkalinization (H+ symport) in unbuffered yeast cell suspension, Michaelis-Menten fit; format: cell-based; settings: pH 5, proton symport, one H+ per polyol assumed, maltose-grown S. cerevisiae cells
T1 construct: gene DEHA2E24310g; full-length ORF (626 aa) without stop, C-terminal GFP, plasmid pUG35, in S. cerevisiae YSH 1172 (strain MLY22)
Description: initial extracellular alkalinization (H+ symport) in unbuffered yeast cell suspension, Michaelis-Menten fit on DhSgl1

[2] = target: T2, DhSyl1 (Debaryomyces hansenii, UniProt B5RT81); assay: inhibition of [U-14C] sorbitol uptake; format: cell-based; settings: 1.5 mM [U-14C] sorbitol, 20 mM mannitol
T2 construct: gene DEHA2C05896g; full-length ORF (649 aa) without stop, C-terminal GFP, plasmid pUG35, in S. cerevisiae YSH 1172 (strain MLY9); any CUG codon is read as Leu in the host
T2 sequence (B5RT81 1-649): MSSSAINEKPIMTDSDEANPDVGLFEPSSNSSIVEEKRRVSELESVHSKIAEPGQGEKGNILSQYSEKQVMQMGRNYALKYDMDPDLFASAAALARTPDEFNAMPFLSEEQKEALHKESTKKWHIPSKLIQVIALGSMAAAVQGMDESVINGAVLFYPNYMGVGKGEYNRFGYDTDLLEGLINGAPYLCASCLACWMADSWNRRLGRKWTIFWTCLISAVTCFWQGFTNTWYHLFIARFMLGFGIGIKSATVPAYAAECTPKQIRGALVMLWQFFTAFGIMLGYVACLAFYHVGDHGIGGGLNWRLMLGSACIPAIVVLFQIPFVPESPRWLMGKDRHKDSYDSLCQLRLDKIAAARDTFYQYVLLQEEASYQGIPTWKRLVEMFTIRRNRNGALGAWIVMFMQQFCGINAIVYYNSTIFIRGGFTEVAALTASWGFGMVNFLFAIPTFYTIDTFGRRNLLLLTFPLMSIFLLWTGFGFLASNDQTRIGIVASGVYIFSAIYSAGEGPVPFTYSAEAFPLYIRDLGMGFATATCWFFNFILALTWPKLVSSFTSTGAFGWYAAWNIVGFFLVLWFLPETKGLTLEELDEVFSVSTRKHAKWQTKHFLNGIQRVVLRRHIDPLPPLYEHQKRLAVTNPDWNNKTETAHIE

[3] = substrate: OC[C@@H](O)[C@@H](O)[C@H](O)[C@@H](O)CO; assay: initial extracellular alkalinization (H+ symport) in unbuffered yeast cell suspension, Michaelis-Menten fit; format: cell-based, Debaryomyces hansenii; settings: pH 5, proton symport, one H+ per polyol assumed, maltose-grown S. cerevisiae cells
Description: (§1) initial extracellular alkalinization (H+ symport) in unbuffered yeast cell suspension, Michaelis-Menten fit on DhSyl1

[4] = substrate: OC[C@@H](O)C(O)[C@H](O)CO; assay: as above; format: cell-based, Debaryomyces hansenii; settings: pH 5, proton symport, one H+ per polyol assumed, maltose-grown S. cerevisiae cells
Description: as §1

[5] = substrate: OC[C@@H](O)[C@H](O)[C@H](O)[C@@H](O)CO; assay: as above; format: cell-based, Debaryomyces hansenii; settings: pH 5, proton symport, one H+ per polyol assumed, maltose-grown S. cerevisiae cells
Description: as §1

[6] = substrate: OC[C@@H](O)[C@@H](O)[C@H](O)[C@H](O)CO; assay: as above; format: cell-based, Debaryomyces hansenii; settings: pH 5, proton symport, one H+ per polyol assumed, maltose-grown S. cerevisiae cells
Description: as §1

[7] = substrate: OC[C@@H](O)[C@@H](O)[C@@H](O)CO; assay: as above; format: cell-based, Debaryomyces hansenii; settings: pH 5, proton symport, one H+ per polyol assumed, maltose-grown S. cerevisiae cells
Description: as §1

[8] = substrate: OC[C@@H](O)[C@@H](O)[C@H](O)[C@@H](O)CO; assay: as above; format: cell-based, Debaryomyces hansenii; settings: pH 5, proton symport, one H+ per polyol assumed, maltose-grown S. cerevisiae cells; remark: listed apart in the source
Description: (§2) initial extracellular alkalinization (H+ symport) in unbuffered yeast cell suspension, Michaelis-Menten fit on DhSyl2

[9] = substrate: OC[C@@H](O)C(O)[C@H](O)CO; assay: as above; format: cell-based, Debaryomyces hansenii; settings: pH 5, proton symport, one H+ per polyol assumed, maltose-grown S. cerevisiae cells; remark: listed apart in the source
Description: as §2

[10] = substrate: OC[C@@H](O)[C@@H](O)[C@H](O)[C@H](O)CO; assay: as above; format: cell-based, Debaryomyces hansenii; settings: pH 5, proton symport, one H+ per polyol assumed, maltose-grown S. cerevisiae cells; remark: listed apart in the source
Description: as §2

[11] = substrate: OC[C@@H](O)[C@@H](O)[C@@H](O)CO; assay: as above; format: cell-based, Debaryomyces hansenii; settings: pH 5, proton symport, one H+ per polyol assumed, maltose-grown S. cerevisiae cells; remark: listed apart in the source
Description: as §2

[12] = substrate: O[C@H]1[C@H](O)[C@H](O)[C@@H](O)[C@H](O)[C@H]1O; assay: as above; format: cell-based, Debaryomyces hansenii; settings: pH 5, proton symport, one H+ per polyol assumed, maltose-grown S. cerevisiae cells
Description: initial extracellular alkalinization (H+ symport) in unbuffered yeast cell suspension, Michaelis-Menten fit on DhSyi1

T1 sequence (Q6BN62 entry or part of it): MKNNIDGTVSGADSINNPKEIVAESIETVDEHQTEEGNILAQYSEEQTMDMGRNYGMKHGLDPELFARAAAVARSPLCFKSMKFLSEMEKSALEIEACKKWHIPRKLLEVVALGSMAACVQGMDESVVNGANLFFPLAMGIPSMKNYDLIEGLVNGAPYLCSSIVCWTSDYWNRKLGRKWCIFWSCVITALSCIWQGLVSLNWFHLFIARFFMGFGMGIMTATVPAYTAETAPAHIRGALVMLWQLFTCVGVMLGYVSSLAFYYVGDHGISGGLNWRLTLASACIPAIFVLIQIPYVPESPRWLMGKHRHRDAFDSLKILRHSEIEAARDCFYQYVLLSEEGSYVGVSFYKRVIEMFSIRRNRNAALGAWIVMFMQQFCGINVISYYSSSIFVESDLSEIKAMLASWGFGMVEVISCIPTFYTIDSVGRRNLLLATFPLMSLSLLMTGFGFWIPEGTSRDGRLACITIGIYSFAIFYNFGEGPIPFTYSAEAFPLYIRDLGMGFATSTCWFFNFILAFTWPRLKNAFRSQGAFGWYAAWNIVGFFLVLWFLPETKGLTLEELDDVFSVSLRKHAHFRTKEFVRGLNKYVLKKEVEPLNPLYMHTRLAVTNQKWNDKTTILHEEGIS

For `OC[C@@H](O)[C@H](O)[C@H](O)[C@@H](O)CO` [D-Galactitol], the Km [1] was 1.93 ± 0.77 mM.

In the case of `OC[C@@H](O)[C@@H](O)[C@H](O)[C@H](O)CO` [D-Mannitol], the “% reduction of sorbitol uptake at 20 mM” value [2] is reported as 70%.

B1: DhSyl1 (Debaryomyces hansenii CBS767) (protein)
chain: T2 sequence (B5RT81 1-649)
notes: full-length ORF (649 aa) without stop, C-terminal GFP, plasmid pUG35, in S. cerevisiae YSH 1172 (strain MLY9); any CUG codon is read as Leu in the host
Work on B1 yielded a Km [3] of 11.51 ± 2.50 mM, a Km [4] of 0.96 ± 0.32 mM and a Km [5] of 12.33 ± 1.50 mM. It also gave a Km [6] of 0.30 ± 0.09 mM and a Km [7] of 11.44 ± 4.46 mM.

B2: DhSyl2 (Debaryomyces hansenii CBS767) (protein)
chain: MPSETNPEKPVALRSDNPHEENGLFEHSSNSSFNEKRRVSELESIHSKIAEPGQGEKGNILSQYSEKQVMQMGRNYALKYDLDPDLFARAAALARTPDDFNAMPFITEEEKQALHKEHTKKWHIPSKLIQVIALGSMAAAVQGMDESVINGALLFYPNYMGVGKGEYNRFGYDTDMIEGLINGAPYLCASCIACWMSDLWNRHLGRKWTIFWTCLISALTCFWQGFTNTWYHLFIARFMLGFGIGIKSATVPAYAAECTPKQIRGALVMLWQFFTAVGIMFGYVACLAFYHVGDHGIGGGLNWRLMLGSACIPAIIVLFQIPFVPESPRWLMGKDRHKDSYDSLCQLRLDKIAAARDTFYQYVLLQEEASYQGIPTWKRLVEMFTIRRNRNGALGAWIVMFMQQFCGINAIVYYNSTIFIQGGFTEVDALTASWGFGMVNFLFAIPTFYTIDTFGRRNLLLFTFPLMALFLIWTGLGFVAEDGTKTQTGIVASGVYIFSAIYSAGEGPVPFTYSAEAFPLYIRDIGMGFATATCWFFNFILALTWPKLVSSFGRTGAFMWYAAWNIAGFFMVLWFLPETKGLTLEELDEVFSVSTRKHAIYQTKSILNSFQRVVLRRHIDPLPPLYEHQKRLAVTNPDWNNKTETAHIE
notes: full-length ORF (649 aa) without stop, C-terminal GFP, plasmid pUG35, in S. cerevisiae YSH 1172 (strain MLY12); any CUG codon is read as Leu in the host
B2 gave a Km [8] of 13.82 ± 2.12 mM, a Km [9] of 0.46 ± 0.21 mM and a Km [10] of 0.93 ± 0.16 mM. For the same molecule, the Km [11] was 18.31 ± 3.23 mM.

B3: DhSyi1 (Debaryomyces hansenii CBS767) (protein)
chain: MATEDKELGVVITDVSKLSEKIEEQNNIISKGGSVDDYLYEKRPWWKVNYLVRLNFCIFLITLSSTNNGYDGSMLNGLQSVSYWPEKMGNPQGSVLGALSNGNVFGVVLSFVCASWLADKFGRWRCIFVGQTITILGSILQGVSTNYGFFLASRIILGFGVGIAGVSSPSLISELAYPTHRATATTFYNVCWYLGAIIAAWVTYGTLNIENDYSWRIPSYLQAALPCLQIAFFWMVPESPRYLINKDRISDAEKVLRKFHAGGETHERANDLVSFEIEEIQAALEIEKLSSNSRYSDFITMPTFRKRLFLAVFVAVIMQLSGNGLVSYYLNKVLNSIGITDPHEQLKINGCLMVYNLVISSVVASVAGRFKRRSMFLICTILMLVFYVIWTILSAINQQRNFEQKSLGNGVIAMIFFYYLAYDIGANGLPFLYITEIMPYSHRAKGMNIFTVSQNIIIIFNGFVNPIAMDAIEWKYYIVYCCILAVEVITVLFTFVETSAYTLEEVAKVFGDDPGQTLIHLSSAPPKPEVGHIETV
notes: full-length ORF (536 aa) without stop, C-terminal GFP, plasmid pUG35, in S. cerevisiae YSH 1172 (strain MLY23); any CUG codon is read as Leu in the host
Molecule B3 has a Km [12] of 18.64 ± 9.23 mM.
